Cross-linked products data for one substance are collected here from US20190017043A1.

The experiment has as its target MBP-Z-N6K (Z-domain protein with Asn6 mutated to Lys, fused with maltose binding protein) [MBP: P0AEX9]. Briefly: covalent protein-protein cross-linking after sodium periodate treatment, 4 hours, SDS-PAGE.

In turn, “AFB-D36DOPA (ZSPA affibody with L-DOPA genetically incorporated at position 36) (designed binder)” had a cross-linked products of 70 to 75%.
